Reference: the supplement of paper PMC9170038

Tested on: MS2 coat protein
Assay: apparent KD of MS2 coat protein; designed switch direction (-1 OFF switch, 1 ON switch): -1; higher = weaker reporter binding
In short: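 The reported apparent KD is a per-design median over clusters, from curve fits of normalised cluster fluorescence. Protein titrations used SNAP-549-labelled MS2 coat protein, doubled from 0.7 or 1.5 nM to 3 µM, in Tris-HCl pH 7.5 buffer with KCl, MgCl2, BSA, DTT, tRNA and Tween-20, with no input, 200 uM small-molecule ligand, or an oligonucleotide input. The RNA switches were transcribed on Illumina chips by stalled E. coli RNA polymerase.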

[1] = Eterna round: R95, input ligand: microRNA oligo, concentration not stated
[2] = input ligand: microRNA oligo, concentration not stated
[3] = Eterna round: R95, input ligand: FMN 200 uM
[4] = Eterna round: R95, input ligand: none

Sequence	apparent KD of MS2 coat protein (input ligand: FMN 200 uM)	apparent KD of MS2 coat protein (input ligand: none)	apparent KD of MS2 coat protein [1]	apparent KD of MS2 coat protein [2]	apparent KD of MS2 coat protein [3]	apparent KD of MS2 coat protein [4]
GUCAUCAAACAUGGGAUCAACAUGAGGAUCACCCAUGUUGACAAGUUUUUUGCUCGUCUUAUAAUAAGUUUGAUGAC [Antenna 9 - Jieux - Sensor, turn-off variant 1] (Eterna round: R97, puzzle: Sensor, turn-off variant 1)	0.0155 µM	0.0162 µM				
UGAUCAAAUGUCAGGAUAUGCUGUUGUAAUCAACAGCAGAAGGGACAUGAGGAUCACCCAUGUCUUGUCGAUUU [Magic-03] (puzzle: Brourd's mod of Exclusion 4)			0.0138 µM			
UCUCGAUGGCAAGGAUAUCCUACAUUGUUCUGGCCCGGGCAUGCUACAUGAGGAUCACCCAUGUGGGAGAAGGUGCGCCACUGC [Design 26] (Eterna round: R96, puzzle: Exclusion NG 2)	0.118 µM	0.0933 µM		0.055 µM		
AGUGCGUAUGUGAGGAUAUGCUGGUCCUUGGAUCAGCAGAAGGCACAUGAGGAUCACCCAUGUGGUGUCGUACU [salish99_Bmod_Ex4_005] (puzzle: Brourd's mod of Exclusion 4)			0.19 µM			
GGGUAGUGAGGAUAUCGUUGUUAGGAGGAGUAGGUAGGAGGCGAGAAGGCACAUGAGGAUCACCCAUGUAUGAA [JR_Exclu4_Sub066] (puzzle: Exclusion 4)			0.0235 µM			
AUUUUGUGAGGAUAUUAGUUGUAGAAAAUUAUUAGUUUAGCUGAGAAGGCACAUGAGGAUCACCCAUGUAAAUC [JR_Ex4_Sub043] (Eterna round: R97, puzzle: Exclusion 4)	0.0267 µM	0.0186 µM				
GCCGAAAGUGUGAGGAUAUACCUAUGGAUACAUAGGUAGAAGGCACAUGAGGAUCACCCAUGUUCCUCAUCGGC [Eli bmx4 4.17] (Eterna round: R97, puzzle: Brourd's mod of Exclusion 4)	0.551 µM	0.0928 µM				
UCCACGUAAGGAUAUGGUCAUUGUGACUUGAGGAUCACCCAAGUUGUGAGCUUCCGUCACCCAGAAGGUGCAUGGU [Oratin] (Eterna round: R97, puzzle: Exclusion 5)	0.216 µM	0.0999 µM				
CUCUUACAUGAGGAUCACCCAUGUGAGGAUAUGCCCGGAGUAGCAGCAGAUCCUCUGGGCAGAAGGCACGUAGG [Eternabot (L1) Solution 98] (Eterna round: R97, puzzle: Exclusion 1)	0.144 µM	0.123 µM				
GGGCCGGCCGGAGGAUAUGCGGCCCGGCCGGCCGGUGGGCCGGCCGGGACAUGAGGAUCACCCAUGUAGAAGGCCGGCCGGCCC [low energy, MS2 in another position, A 14%] (Eterna round: R96, puzzle: Exclusion NG 2)	0.0188 µM	0.0159 µM		0.0137 µM		
ACAAGCUUUUUGUUCGUCUUAUAAUAAUAAAUAAAUAUAACAUGAGGAUCACCCAUGUUAAGAAGACAACCUCAUGU [Sesor Array 25 - Jieux - Sensor v3, turn-off variant 2] (puzzle: Sensor v3, turn-off variant 2)			0.606 µM		0.157 µM	0.305 µM
AUUAAAAUAUAGGAUAUCGAAUAUAUUAUUUAACGAGAAGGAUGAACAUGAGGAUCACCCAUGUGGUAUCAUGG [Mat - Exclusion 6 - JL Mod - D36] (puzzle: Exclusion 6)			0.298 µM		0.157 µM	0.402 µM
CGUGACUCAGGAUAUCUAUUAUAUCACAUGAGGAUCACCCAUGUCCAGCGAAAGCUGGAGGGAGAAGGGAGUCACG [Fiskers Ex 5 - 44] (puzzle: Exclusion 5)			0.136 µM		0.0523 µM	0.108 µM
UUUAAUUUUUUUUUUUUACAAGCUUUUUGCUCGUCUUAUACAUGAGGAUCACCCAUGUAAAUGAGGGAUAAAUUAUC [JMF 38] (puzzle: Sensor v3, turn-off variant 2)			0.0213 µM		0.0154 µM	0.0157 µM
GGGUGCAGGCUGAGGUCCUACAUGAGGAUCACCCAUGUGGUCCGGUGGCGUGGGUCGCCGGACUUGGCUCGUCUUGU [salish99_S_TOV1_R5_013] (Eterna round: R97, puzzle: Sensor, turn-off variant 1)	0.0392 µM	0.0458 µM				
GUGGUGGGUUUUUCGAGUAACAUGAGGAUCACCCAUGUAUUAGUUGGAUGUAUCAAGCUUUGUGCUCGACUUAUAUA [JR_SV3TOV1_Sub044] (puzzle: Sensor v3, turn-off variant 1)			0.442 µM		0.659 µM	0.696 µM
AGUUGGCGAGGAUAUACAUGAGGAUCACCCAUGUGAAAUCGAGAAAAAAUAGGGAAAAGUAGAAGGCGCAGACA [Ruby 63] (Eterna round: R96, puzzle: Exclusion 3)	0.0282 µM	0.0287 µM		0.0243 µM		
CGAUAUUAUGUCAGGAUAUACAUUGCGAAAGCAAUGUAGAAGGGACAUGAGGAUCACCCAUGUCCUAACUAUCG [Omei A 2] (puzzle: Brourd's mod of Exclusion 4)			0.0129 µM			
AUCAGCUCGUGAGGAUAUACAUCACUGCUUCGGCAGUGUAUUAAGAUCACAUGAGGAUCACCCAUGUAGAAGGCACGAGCUGAU [ENG2/2-A3] (Eterna round: R96, puzzle: Exclusion NG 2)	0.437 µM	0.0383 µM		0.0317 µM		
CCCUCGCGAGGAUAUGCAUCCUCCCUCAUUUCUUUCACUACACAUGAGGAUCACCCAUGUAGAAGGCGCUCUCC [Nina] (puzzle: Exclusion 2)			0.0412 µM			
UUUAAUUUUUUUUUUUUACAAGCUUUUUGCUCGUCUUAUACAUGAGGAUCACCCAUGUGGGUGGGAGGUAAAUUAUC [JMF 78] (puzzle: Sensor v3, turn-off variant 2)			0.0261 µM		0.0637 µM	0.0826 µM
AGAAAUUCAAGAGGAUAUCACAUGAGGAUCACCCAUGUAUAGCGCGCUACGCUAGUCCUCGUAUUUGAGAAGGUUUGAUAAAAG [Mat - Exclusion NG 2 - Mod of JL - D77] (Eterna round: R96, puzzle: Exclusion NG 2)	0.0143 µM	0.0157 µM		0.0143 µM		
GUCACUAGAGGAUAUACAAUGGUAUAUGAUCCUAGAGACAAACAUGAGGAUCACCCAUGUAGAAGGCUAGUAAA [Exclusion 2 - 1] (puzzle: Exclusion 2)			0.153 µM		0.0321 µM	0.0895 µM
GAUUAUGCGAGCUUUAGGGACAUGAGGAUCACCCAUGUUCGUCUUAUUAGUCUAGAUACGCUGACAUACCUAAAUCU [JMF 96] (puzzle: Sensor v3, turn-off variant 1)			0.0185 µM		0.0145 µM	0.0158 µM
CAGUACUGAGGAUAUACAUGAGGAUCACCCAUGUUUUCCAGCUAGGAUACUAGCAAGUGUAGAAGGCAGUACUG [Mat - Exclusion 3 - Eli Mod - D6] (Eterna round: R97, puzzle: Exclusion 3)	0.273 µM	0.0245 µM				
